In article PMC7412237 (Molecules, 2020):
Blank lines part the entries; values can stand above or below the binder they belong to.

Legend:
Conditions in all cases: both partners purified
wt-p53 (1–321 aa) = biological target: T1, wt-p53 (1–321 aa) (human, UniProt P04637 1-321); test: ITC; Microcal iTC200, 25 °C; 0.012–0.030 mM p53 in the cell, 0.1–0.3 mM Mdm2 or MdmX in the syringe; 20 injections; single set of sites; in duplicate
T1 construct: p53, human, residues 1-321, cloned into pET23; also called p53-wt; source: E. coli BL21 (DE3) RIL, purified (Ni-NTA, gel filtration)
T1 sequence (P04637 1-321): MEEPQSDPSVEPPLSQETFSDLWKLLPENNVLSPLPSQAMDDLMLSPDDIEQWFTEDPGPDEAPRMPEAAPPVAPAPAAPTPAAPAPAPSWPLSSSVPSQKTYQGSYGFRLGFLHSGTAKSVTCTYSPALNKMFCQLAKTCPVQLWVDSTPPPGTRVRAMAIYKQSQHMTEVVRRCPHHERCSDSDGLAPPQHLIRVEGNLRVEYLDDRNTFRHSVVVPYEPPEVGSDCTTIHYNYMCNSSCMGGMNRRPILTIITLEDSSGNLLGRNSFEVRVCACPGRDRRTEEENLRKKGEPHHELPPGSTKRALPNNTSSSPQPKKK

(N66A)PD-1 = (N66A)PD-1 (human, UniProt Q15116 33-150, C93S | N66A, RED-NHS fluorescent label (in the MST); uniformly 15N-labelled (in the NMR)); test: MST; PD-1 or mutant labelled with RED-NHS, kept at 20 nM; unlabelled PD-L1 diluted from 183 µM to 416 nM; 50 mM Tris-HCl pH 7.6, 150 mM NaCl, 10 mM MgCl2, 0.05% Tween-20; 2 h at RT
Sequence of (N66A)PD-1 (Q15116 33-150 N66A/C93S): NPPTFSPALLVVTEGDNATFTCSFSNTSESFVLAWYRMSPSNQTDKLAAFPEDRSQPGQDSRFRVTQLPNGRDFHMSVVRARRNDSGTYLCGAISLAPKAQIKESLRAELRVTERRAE

[1] = biological target: human wt-PD-1 (33–150 aa, C93S mutation) (human, UniProt Q15116 33-150, C93S, RED-NHS fluorescent label (in the MST); uniformly 15N-labelled (in the NMR)); test: as above
Sequence of human wt-PD-1 (33–150 aa, C93S mutation) (Q15116 33-150 C93S): as the sequence (Q15116 33-150 N66A/C93S) above, with A34N counted along it

- Kd (wt-p53 (1–321 aa)): 0.6 ± 0.02 µM
B1: recombinant human Mdm2 (1–125 aa) (domain or fragment, UniProt Q00987 1-125, looked up)
chain: MCNTNMSVPTDGAVTTSQIPASEQETLVRPKPLLLKLLKSVGAQKDTYTMKEVLFYLGQYIMTKRLYDEKQQHIVYCSNDLLGDLFGVPSFSVKEHRKIYTMIYRNLVVVNQQESSDSGTSVSEN

- Kd ((N66A)PD-1): > 100 µM
- Kd [1]: 8 µM
B2: recombinant PD-L1 (18–134 aa) (domain or fragment)
chain: AFTVTVPKDLYVVEYGSNMTIECKFPVEKQLDLAALIVYWEMEDKNIIQFVHGEEDLKVQHSSYRQRARLLKDQLSLGNAALQITDVKLQDAGVYRCMISYGGADYKRITVKVNAPY
